Test results published in patent CN117651715A (UNIV OXFORD INNOVATION LTD, dated 2024).

Legend:
[1] = molecular target: 人类CD1a池B蛋白 (human CD1a pool B protein, recombinant) (human) (UniProt P06126); assay: SPR (Biacore T200), antibody captured, human CD1a titrated, 1:1 model
[2] = molecular target: T1, 人类CD1a池B蛋白 (human CD1a pool B protein, recombinant) (human, UniProt P06126 17-300, limits assumed); assay: SPR (Biacore T200), antibody captured on anti-species F(ab')2, human CD1a titrated 0-50 nM, 1:1 model
T1 construct: Recombinant protein used in ELISA, Biacore and on beads; also called 人类CD1a蛋白; CD1a包被珠 (on beads)

[3] = molecular target: T1, 人类CD1a池B蛋白 (human CD1a pool B protein, …); assay: SPR (Biacore T200), antibody captured, human CD1a titrated, 1:1 model
[4] = molecular target: 人类CD1a池B蛋白 (human CD1a pool B protein, recombinant) (human) (UniProt P06126); assay: SPR (Biacore T200), antibody captured, human CD1a titrated, heterogeneous ligand model

T1 sequence (P06126 17-300 limits assumed): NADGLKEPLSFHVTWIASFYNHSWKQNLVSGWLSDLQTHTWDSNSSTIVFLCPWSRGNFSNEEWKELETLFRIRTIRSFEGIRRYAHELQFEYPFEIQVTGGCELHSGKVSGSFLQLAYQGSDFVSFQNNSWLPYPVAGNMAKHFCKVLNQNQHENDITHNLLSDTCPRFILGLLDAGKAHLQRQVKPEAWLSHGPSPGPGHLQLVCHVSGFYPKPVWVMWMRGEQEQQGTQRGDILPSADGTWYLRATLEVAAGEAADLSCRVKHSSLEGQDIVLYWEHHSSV

| Binder | Kd [1] [nM] | koff [1] [s⁻¹] | kon [1] [M⁻¹ s⁻¹] | also measured |
| --- | --- | --- | --- | --- |
| 77A(VR11851) (antibody, V domains shown) VH: QSVEESGGRLVTPGTPLTLTCTVSGFSLSSYAMSWVRQAPGKGLEWIGIISSSGTTYYASWAKGRFTISKTSTTVDLKITSPTTEDTATYFCARVDYYSSGWGGLWGPGTLVTVSS VL: AVEMTQTPASMSAAVGGTVTIKCQASEDIYSNLAWYQQKPGQPPKLLIYGASTLASGVPSRFKGSGSGTEYTLTISGVQCDDAATYYCQCTYDTSSYGNTFGGGTEMVVE |  |  |  | kon [2]: 469000 M⁻¹ s⁻¹; Kd [3]: 0.24 nM; koff [3]: 0.000113 s⁻¹ |
| 16(VR11834) (antibody, from another filing, V domains shown) VH: EVQLVESGGGLVKPGGSLKLSCAASGFTFSNYAMSWVRQTPEKRLEWVAAINSNGGSAYYPDTVKDRFTISRDNAKNTLYLQMSSLRSEDTALYYCARRFYYDYGWFAYWGQGTLVTVSS VL: DIVLTQSPASLSASVGETVTITCRASENIDSYLAWYQQKQGKSPQLLVYAATLLADGVPSRFSGSGSGTQYSLKINSLQSEDVARYYCQHYYSSPWTFGGGTKLEIK |  |  |  | Kd [4]: 0.392 nM; ka 2 [4]: 514000 M⁻¹ s⁻¹; kd 2 [4]: 0.00658 s⁻¹; koff [4]: 0.000729 s⁻¹; kon [4]: 1.86e+06 M⁻¹ s⁻¹ |

Further lines, with some results ahead:

| Kd [1] [nM] | koff [1] [s⁻¹] | kon [1] [M⁻¹ s⁻¹] | Binder | also measured |
| --- | --- | --- | --- | --- |
| 0.0312 | 1.47e-08 | 321000 | 111(VR12113) (antibody, from another filing, V domains shown) VH: QSVEESGGRLVTPGTPLTLTCTASGFSLSTYAMSWVRQAPGKGLEWIGIISSSGSTYYASWAKGRFTISKTSTTVDLKITSPTTEDTATYFCARETWYWLDLWGQGTLVTVSS VL: AVEMTQTPASVSAAVGGTVTINCQASEDIYSNLAWYQQKPGQPPKLLIYGASTLASGVPSRFKGSGSGTEYTLTISGVQCDDAATYYCQCAYDSSSYGTPFGGGTEVVVK |  |
| 1.97 | 0.000874 | 443000 | 110(VR12112) (antibody, from another filing, V domains shown) VH: QSVEESGGRLVTPGTPLTLTCTVSGFSLSSYAMIWVRQAPGKGLEWIGIINSSDNTHYATWAKGRFTISKTSTTVDLKITSPTTEDTATYFCARDPYDYGYGWYFDLWGPGTLVTVSS VL: AQVLTQTPSPVSAAVGGTVTINCQASQSVFNNKNLAWYQQKPGQPPKLLIYKASTLASGVSSRFKGSGSGTQFALTISGVQCDDAATYYCQGEFSCSSTDCVTFGGGTEVVVK |  |
| 2.89 | 0.0014 | 483000 | 116(VR12117) (antibody, from another filing, V domains shown) VH: QSVEESGGRLVTPGTPLTLTCTVSGFSLSNYAMSWVRQAPGKGLEWIGIIYTTGFTYYASWVKGRFTISKTSTTVDLKITSPTTEDTATYFCARGLATYVSPPTRLDLWGQGTLVTVSS VL: AQVLTQTPSPVSAAVGGTVTINCQASQSIYNSKNLAWYQQKPGQPPKLLIYSASTLASGVPSRFKGSGSGTQFTLTISDLECDDAATYYCQGEFSCSSVDCATFGGGTEVVVK |  |
